How the values were obtained:
Assay in all cases: GST-protein-interaction test
Type in all cases: binding
Conditions in all cases: in vitro
[1] = target: T1, progesterone receptor beta (Homo sapiens, UniProt P06401)
T1 construct: made in house; host or cells: in vitro translation, 35S-methionine labelled
T1 sequence (P06401 1-933): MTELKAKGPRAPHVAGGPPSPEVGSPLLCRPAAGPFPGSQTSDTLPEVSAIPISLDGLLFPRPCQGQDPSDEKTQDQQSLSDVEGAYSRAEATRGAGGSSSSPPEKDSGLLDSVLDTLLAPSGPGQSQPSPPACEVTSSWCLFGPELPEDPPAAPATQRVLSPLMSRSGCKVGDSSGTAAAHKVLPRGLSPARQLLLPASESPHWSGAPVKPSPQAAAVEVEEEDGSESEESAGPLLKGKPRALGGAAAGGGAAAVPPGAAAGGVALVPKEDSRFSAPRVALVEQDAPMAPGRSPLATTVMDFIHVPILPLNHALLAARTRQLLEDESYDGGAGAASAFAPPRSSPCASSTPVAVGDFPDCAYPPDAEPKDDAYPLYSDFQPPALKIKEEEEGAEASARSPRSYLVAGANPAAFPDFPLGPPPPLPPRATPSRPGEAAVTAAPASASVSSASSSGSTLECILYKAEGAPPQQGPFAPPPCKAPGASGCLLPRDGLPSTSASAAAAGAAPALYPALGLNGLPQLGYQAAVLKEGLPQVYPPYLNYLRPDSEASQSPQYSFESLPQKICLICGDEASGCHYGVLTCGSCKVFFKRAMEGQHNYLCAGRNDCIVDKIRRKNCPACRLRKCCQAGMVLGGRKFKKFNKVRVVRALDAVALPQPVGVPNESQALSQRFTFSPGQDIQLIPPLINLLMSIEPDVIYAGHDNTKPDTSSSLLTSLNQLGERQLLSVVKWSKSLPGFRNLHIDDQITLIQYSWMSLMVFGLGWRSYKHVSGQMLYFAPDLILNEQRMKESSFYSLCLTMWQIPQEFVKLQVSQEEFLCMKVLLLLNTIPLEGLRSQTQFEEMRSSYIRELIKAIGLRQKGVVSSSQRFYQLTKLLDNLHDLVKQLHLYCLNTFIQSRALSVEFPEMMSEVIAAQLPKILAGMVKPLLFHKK
Protocol: (§1) To measure the interaction between SLIM3 and the nuclear receptors in vitro, the GST-Slim3 fusion protein was immobilized by means of glutathione-sepharose and incubated with several in vitro-translated ^35S-methionine-labeled nuclear receptors. The complete human androgen receptor binds to GST-Slim3. This in vitro interaction is not ligand-dependent under standard conditions. The complete human androgen receptor binds specifically to GST-Slim3, but not to the GST protein alone. To safeguard the specificity between the human androgen receptor and SLIM3, another GST-protein-interaction test was carried out (GST-protein-interaction assay). This test is described in E. PFITZNER et al. (1995) Functional Antagonism Between the Retinoid Acid Receptor and the Viral Transactivator BZLF1 is Mediated by Protein-Protein Interactions. Proc Natl Acad Sci USA Vol. 92, pp. 12265-12269.

co-activator TIF2 = co-activator TIF2 (Homo sapiens, UniProt Q15596)
co-activator TIF2, sequence (Q15596 whole entry): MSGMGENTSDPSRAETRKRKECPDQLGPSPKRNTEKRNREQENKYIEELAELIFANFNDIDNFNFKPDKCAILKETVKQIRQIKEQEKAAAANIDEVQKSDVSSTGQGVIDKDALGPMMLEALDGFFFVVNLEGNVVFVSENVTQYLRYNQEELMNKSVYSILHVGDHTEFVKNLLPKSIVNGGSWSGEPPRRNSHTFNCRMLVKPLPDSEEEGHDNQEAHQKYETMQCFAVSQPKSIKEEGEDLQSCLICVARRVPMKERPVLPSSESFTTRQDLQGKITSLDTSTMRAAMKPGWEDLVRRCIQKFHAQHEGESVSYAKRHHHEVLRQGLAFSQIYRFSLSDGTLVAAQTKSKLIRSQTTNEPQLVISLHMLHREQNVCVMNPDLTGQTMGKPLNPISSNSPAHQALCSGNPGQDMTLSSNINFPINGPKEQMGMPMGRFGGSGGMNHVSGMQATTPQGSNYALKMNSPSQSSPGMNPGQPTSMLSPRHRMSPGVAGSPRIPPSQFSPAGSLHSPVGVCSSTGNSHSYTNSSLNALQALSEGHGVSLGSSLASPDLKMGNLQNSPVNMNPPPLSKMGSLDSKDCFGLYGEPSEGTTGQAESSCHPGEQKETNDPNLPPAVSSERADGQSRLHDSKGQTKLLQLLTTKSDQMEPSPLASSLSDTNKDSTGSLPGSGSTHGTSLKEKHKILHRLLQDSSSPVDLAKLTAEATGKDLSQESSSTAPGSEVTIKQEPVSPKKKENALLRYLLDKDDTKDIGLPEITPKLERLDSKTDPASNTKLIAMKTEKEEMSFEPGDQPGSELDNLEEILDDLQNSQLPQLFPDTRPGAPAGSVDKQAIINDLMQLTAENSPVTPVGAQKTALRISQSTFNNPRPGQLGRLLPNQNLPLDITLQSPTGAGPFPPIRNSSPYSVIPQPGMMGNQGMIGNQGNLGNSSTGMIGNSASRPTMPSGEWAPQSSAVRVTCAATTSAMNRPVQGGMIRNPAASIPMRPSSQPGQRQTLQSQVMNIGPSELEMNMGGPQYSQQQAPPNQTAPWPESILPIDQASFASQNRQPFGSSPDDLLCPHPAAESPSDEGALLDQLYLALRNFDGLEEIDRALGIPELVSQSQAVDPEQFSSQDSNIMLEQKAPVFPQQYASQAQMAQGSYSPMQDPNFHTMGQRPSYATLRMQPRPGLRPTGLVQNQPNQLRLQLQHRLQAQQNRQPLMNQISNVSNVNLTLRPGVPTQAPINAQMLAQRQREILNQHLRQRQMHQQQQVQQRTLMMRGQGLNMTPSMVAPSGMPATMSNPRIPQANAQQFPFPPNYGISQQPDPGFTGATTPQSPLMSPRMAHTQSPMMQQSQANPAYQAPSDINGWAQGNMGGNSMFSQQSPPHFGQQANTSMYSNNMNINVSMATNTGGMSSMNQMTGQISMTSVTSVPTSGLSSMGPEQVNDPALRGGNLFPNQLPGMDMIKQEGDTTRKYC
co-activator TIF2, sequence (Q14192 whole entry partner): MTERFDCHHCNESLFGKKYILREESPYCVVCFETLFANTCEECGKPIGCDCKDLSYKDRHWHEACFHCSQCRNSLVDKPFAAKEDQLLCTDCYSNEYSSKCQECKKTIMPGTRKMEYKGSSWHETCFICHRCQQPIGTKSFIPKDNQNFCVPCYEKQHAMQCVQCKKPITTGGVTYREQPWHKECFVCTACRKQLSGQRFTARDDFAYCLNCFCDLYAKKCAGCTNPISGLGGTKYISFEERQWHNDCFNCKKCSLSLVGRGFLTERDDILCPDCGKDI
Protocol: as §1

glucocorticoid receptors = target: T2, glucocorticoid receptors (Homo sapiens, UniProt P04150)
T2 construct: made in house; host or cells: in vitro translation, 35S-methionine labelled
T2 sequence (P04150 1-777): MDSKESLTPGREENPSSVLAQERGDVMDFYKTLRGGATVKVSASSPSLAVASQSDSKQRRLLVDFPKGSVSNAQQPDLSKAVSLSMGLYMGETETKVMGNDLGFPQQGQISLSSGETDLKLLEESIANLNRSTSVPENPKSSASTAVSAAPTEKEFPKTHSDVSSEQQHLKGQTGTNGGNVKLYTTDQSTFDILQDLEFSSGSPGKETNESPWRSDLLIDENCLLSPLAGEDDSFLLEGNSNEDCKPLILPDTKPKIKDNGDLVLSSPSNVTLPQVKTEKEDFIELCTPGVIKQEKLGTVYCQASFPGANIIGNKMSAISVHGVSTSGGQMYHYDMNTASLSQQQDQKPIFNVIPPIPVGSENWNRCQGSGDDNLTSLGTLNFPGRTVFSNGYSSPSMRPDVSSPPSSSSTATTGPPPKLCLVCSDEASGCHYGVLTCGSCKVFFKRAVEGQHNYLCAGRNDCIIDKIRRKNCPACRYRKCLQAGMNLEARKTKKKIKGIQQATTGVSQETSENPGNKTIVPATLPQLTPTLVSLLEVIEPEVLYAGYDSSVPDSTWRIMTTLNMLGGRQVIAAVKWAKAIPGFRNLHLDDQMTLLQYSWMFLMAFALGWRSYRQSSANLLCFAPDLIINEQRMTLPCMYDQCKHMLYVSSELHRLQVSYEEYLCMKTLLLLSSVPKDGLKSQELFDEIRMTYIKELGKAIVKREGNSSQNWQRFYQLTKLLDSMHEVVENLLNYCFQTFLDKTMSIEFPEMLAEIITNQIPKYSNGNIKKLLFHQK
Protocol: as §1

[2] = target: T3, progesterone receptor alpha (Homo sapiens, UniProt P06401)
T3 construct: made in house; host or cells: in vitro translation, 35S-methionine labelled
T3 sequence (P06401 1-769 isoform P06401-2): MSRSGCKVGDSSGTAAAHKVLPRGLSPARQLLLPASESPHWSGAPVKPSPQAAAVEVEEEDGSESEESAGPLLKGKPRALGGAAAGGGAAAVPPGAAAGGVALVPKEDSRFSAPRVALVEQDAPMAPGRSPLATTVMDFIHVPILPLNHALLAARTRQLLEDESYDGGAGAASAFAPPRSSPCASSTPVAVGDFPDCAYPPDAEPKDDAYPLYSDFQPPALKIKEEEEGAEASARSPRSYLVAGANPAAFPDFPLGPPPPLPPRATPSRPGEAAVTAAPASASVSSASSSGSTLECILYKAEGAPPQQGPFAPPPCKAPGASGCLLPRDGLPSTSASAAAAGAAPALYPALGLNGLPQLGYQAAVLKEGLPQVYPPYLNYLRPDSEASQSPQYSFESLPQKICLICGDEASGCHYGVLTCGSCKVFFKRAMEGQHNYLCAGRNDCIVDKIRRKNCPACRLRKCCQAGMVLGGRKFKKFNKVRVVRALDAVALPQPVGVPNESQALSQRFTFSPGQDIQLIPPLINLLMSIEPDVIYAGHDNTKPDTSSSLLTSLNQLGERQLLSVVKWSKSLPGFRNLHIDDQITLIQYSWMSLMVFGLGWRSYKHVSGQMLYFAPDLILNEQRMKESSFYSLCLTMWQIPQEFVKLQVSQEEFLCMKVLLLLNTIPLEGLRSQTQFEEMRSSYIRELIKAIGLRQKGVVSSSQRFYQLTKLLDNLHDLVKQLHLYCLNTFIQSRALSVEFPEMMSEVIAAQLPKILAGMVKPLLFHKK
Protocol: as §1

For “SLIM3: LIM-domain protein of 279 amino acids, co-activator for nuclear receptors AR and ERβ”, the “bond to SLIM3” value [1] was “no bond”, the interaction with co-activator (co-activator TIF2) was “interacts” and the “bond to SLIM3” value (glucocorticoid receptors) was “no bond”. For the same substance, the “bond to SLIM3” value [2] was “no bond”.

— patent US20020004209A1, “Use of SLIM3 for binding to molecules” (Schering Aktiengesellschaft Patents, priority 1999, published 2002)
